Measurements: patent US20240343803A1 (SHANDONG SIMCERE BIOPHARMACEUTICAL, published 2024)

T1: Fusion protein of extracellular domain of human TIGIT and His-tag (human TIGIT ECD-his) (human)
T1 chain: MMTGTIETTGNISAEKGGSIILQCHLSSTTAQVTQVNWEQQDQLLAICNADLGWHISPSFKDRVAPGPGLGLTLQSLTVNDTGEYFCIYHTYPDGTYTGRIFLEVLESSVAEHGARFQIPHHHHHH

T2: Full-length human TIGIT on CHO-K1 cells (CHO-K1 human TIGIT) (human, UniProt Q495A1 22-244)
T2 construct: NCBI XP_024309156.1; the entry includes the signal peptide (limits not recoverable); The strain (high, medium, low) is named under assay; also called high expression strain 1D2; medium expression strain 2D10
T2 sequence: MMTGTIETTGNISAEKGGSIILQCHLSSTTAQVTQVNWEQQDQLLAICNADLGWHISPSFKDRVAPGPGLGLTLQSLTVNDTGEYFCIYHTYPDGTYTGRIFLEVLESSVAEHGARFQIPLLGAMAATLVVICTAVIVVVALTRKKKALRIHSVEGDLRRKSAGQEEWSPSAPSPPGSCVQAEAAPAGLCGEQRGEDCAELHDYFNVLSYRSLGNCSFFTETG

T3: Fusion protein of extracellular domain of human TIGIT and mouse IgG2a Fc fragment (human TIGIT ECD-mFc) (human)
T3 construct: The entry includes the signal peptide (limits not recoverable) and the mouse IgG2a Fc
T3 chain: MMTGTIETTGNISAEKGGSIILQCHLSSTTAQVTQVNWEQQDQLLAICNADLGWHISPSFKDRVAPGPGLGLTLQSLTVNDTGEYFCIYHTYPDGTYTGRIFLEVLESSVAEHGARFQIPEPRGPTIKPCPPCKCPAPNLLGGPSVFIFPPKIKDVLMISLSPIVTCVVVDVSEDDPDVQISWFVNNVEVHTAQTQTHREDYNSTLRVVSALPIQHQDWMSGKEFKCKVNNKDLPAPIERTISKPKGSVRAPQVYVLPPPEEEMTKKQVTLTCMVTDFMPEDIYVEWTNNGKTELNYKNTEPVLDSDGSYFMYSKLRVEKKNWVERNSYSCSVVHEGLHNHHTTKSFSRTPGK


What was measured:
[1] = molecular target: T1, Fusion protein of extracellular domain …; assay: BIAcore
[2] = molecular target: T4, Full-length cynomolgus monkey TIGIT on CHO-K1 cells (CHO-K1 cynomolgus monkey TIGIT) (cynomolgus monkey); assay: cell binding, CHO-K1 cynomolgus monkey TIGIT
T4 construct: NCBI XP_015300911.1
T4 sequence (chain, as listed by the source limits assumed): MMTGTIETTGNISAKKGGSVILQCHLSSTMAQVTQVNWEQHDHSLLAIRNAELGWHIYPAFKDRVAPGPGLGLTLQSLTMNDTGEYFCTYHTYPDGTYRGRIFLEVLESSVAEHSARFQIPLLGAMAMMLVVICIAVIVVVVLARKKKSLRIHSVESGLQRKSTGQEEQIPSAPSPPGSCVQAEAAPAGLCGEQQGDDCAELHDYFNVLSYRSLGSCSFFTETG
How it was run: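 Binding was measured by flow cytometry after a 60-minute, 4° C incubation of the antibodies with 2×10⁵ CHO-K1 cells displaying full-length human or cynomolgus monkey TIGIT. Antibody titration: 12 points, threefold serial dilution from 80 nM, in 1% BSA-PBS.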

[3] = molecular target: T2, Full-length human TIGIT on CHO-K1 cells …; assay: FACS; CHO-K1 human TIGIT medium expression strain
How it was run: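 Binding to CHO-K1 cells expressing full-length human or cynomolgus monkey TIGIT, measured by flow cytometry. Cells at 2×10⁵/50 μL in 1% BSA-PBS were mixed 1:1 with antibodies serially diluted 3-fold over 12 points from 80 nM and held at 4° C for 60 min. EC50 came from the binding curves.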

[4] = molecular target: T5, Fusion protein of extracellular domain of human TIGIT and human IgG1 Fc fragment (human TIGIT ECD-hFc) (human); assay: blocking of TIGIT ECD-hFc binding to CHO-K1 CD155 cells
T5 construct: The entry includes the signal peptide (limits not recoverable) and the human IgG1 Fc
T5 sequence (chain, as listed by the source limits assumed): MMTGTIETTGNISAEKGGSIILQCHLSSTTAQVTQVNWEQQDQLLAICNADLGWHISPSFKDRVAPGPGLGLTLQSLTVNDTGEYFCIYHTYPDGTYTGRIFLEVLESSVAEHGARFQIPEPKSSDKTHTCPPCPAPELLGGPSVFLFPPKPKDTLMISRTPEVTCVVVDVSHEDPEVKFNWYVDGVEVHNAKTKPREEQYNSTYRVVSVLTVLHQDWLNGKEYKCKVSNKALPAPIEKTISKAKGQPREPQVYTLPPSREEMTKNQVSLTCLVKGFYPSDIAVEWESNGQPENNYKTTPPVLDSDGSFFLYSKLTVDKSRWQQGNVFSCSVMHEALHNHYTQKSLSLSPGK
How it was run: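 IC50 values come from inhibition curves in a cell-based ELISA using CHO-K1 CD155 cells. Antibodies premixed for 0.5 h with human TIGIT ECD-hFc (working concentration 30 ng/mL) were added to the fixed, blocked cells for 1.5-2 h at 37° C. Bound TIGIT was then detected with HRP secondary antibody and TMB at OD450 nm.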

[5] = molecular target: T3, Fusion protein of extracellular domain …; assay: FACS; blocking of TIGIT ECD-mFc binding to CHO-K1 CD112 cells
Experimental: The collected CHO-K1 CD112 cells were washed once with PBS (Hyclone, CAT #SH30256) and resuspended to 2×10⁵/40 μL with 1% BSA-PBS. The anti-TIGIT humanized antibodies were diluted to 600 nM with 1% BSA-PBS (diluted by 2.5-fold serial dilution for 12 concentration points). The TIGIT ECD-mFc was diluted with 1% BSA-PBS to 6 μg/mL. The 40 μL cells were then mixed with 40 μL diluted antibodies and 40 μL diluted TIGIT ECD-mFc, and then incubated at 4° C. for 60 minutes. […] The cell samples were washed twice with PBS, resuspended to 100 μL/well with 1% BSA-PBS and then analyzed by flow cytometry (BD, Canto II). […] (f) The binding activity of anti-TIGIT humanized antibodies to human PBMCs detected by FACS.

Binder	Kd [1]	koff [1]	kon [1]	EC50 [2]	EC50 [3]	IC50 [4]	IC50 [5]
TIGIT-070-H1L1 (antibody, V domains shown, Humanized anti-TIGIT antibody) VH: EVQLVQSGAEVKKPGASVKVSCKASGYTFTNYYMHWVRQAPGQRLEWMGRIDPDSGGSKYNEKFKSRVTITVDKSASTAYMELSSLRSEDTAVYYCAREGHYGFYSDYWGQGTTVTVSS VL: DIQMTQSPSSLSASVGDRVTITCRVSENIYSYLAWYQQKPGKSPKLLIYNAKTLAEGVPSRFSGSGSGTDFTLTISSLQPEDFATYYCQHHYGNPLTFGPGTKVDIK	0.251 nM	0.000219 s⁻¹	875000 M⁻¹ s⁻¹	0.0596 nM	0.45 nM	0.502 nM	4.3 nM
TIGIT-002-H4L3 (antibody, V domains shown, Humanized anti-TIGIT antibody) VH: EVQLQESGPGLVKPSETLSLTCAVSGYSITSDSWNWIRQPPGKKLEYIGYISYSGNTYYNPSLKSRVTISRDTSKNQFSLKLSSVTAADTAVYYCARLDFSNYGGAVDYWGQGTTVTVSS VL: DIVMTQSPDSLAVSLGERATINCKASQNVRTAVAWYQQKPGQSPKLMIYSASYRYTGVPDRFSGSGSGTDFTLTISSLQAEDVAVYYCQQYYTTPWTFGGGTKVEIK	0.0994 nM	0.000293 s⁻¹	2.95e+06 M⁻¹ s⁻¹	0.0473 nM	0.228 nM	0.354 nM	3.49 nM
TIGIT-005-H2L1d (antibody, V domains shown, Humanized anti-TIGIT antibody with NG-site mutation in VL) VH: EVQLVQSGAEVKKPGASVKVSCKASGYAFTNYLIEWVRQAPGQRLEWMGVINPGSGGTNYKEKFKGRVTITADKSSSTAYMELSSLRSEDTAVYYCARGEYFFFDYWGQGTTVTVSS VL: DIVMTQSPDSLAVSLGERATINCKASQHVSNAVAWYQHKPGQSPKLLIYSASYRYTGVPDRFSGSGSGTDFTLTISSLQAEDVAVYYCQQHYNTPHTFGGGTKVEIK	0.0852 nM	0.000257 s⁻¹	3.02e+06 M⁻¹ s⁻¹	0.0566 nM	0.285 nM	0.376 nM	3.49 nM
TIGIT-006-H5L3 (antibody, V domains shown, Humanized anti-TIGIT antibody) VH: EVQLQESGPGLVKPSETLSLTCAVSGYSMTSDYWNWIRQPPGKKLEYIGYISYSGRTYYNPSLKSRVTISRDTSKNQFSLKLSSVTAADTAVYYCARGDYSNYGGAMYDWGQGTTVTVSS VL: DIVMTQSPDSLAVSLGERATINCRASQGVSTTIAWYQQKPGQSPKLLIYSASYRYTGVPRFSGSGSGTDFTLTISSLQAEDVAVYYCQQYYSSPFTFGGGTKVEIK	0.115 nM	0.000183 s⁻¹	1.6e+06 M⁻¹ s⁻¹	0.0578 nM	0.396 nM	0.587 nM	4.65 nM
